Measured values taken from US6124125A, “AMP activated protein kinase” (Trustees of Dartmouth College, priority 1996, dated 2000).
Values joined by “and” are separate entries in the source; they are usually repeats but may differ in a detail not shown here. Equal values may be shown once. One block for each compound: values may come before it. Where no end group is shown, it is not given here.

Key:
AMPK α1 = assay type: biochemical, rat; conditions: alpha1 immune precipitates, 200 µM
AMPK α2 = assay type: biochemical, rat; conditions: alpha2 immune precipitates
AMPK = AMPK protein kinase assay: phosphorylation of synthetic peptide substrates by partially purified enzyme (DE-52 step); assay type: biochemical, porcine; conditions: for rate of phosphorylation relative to the SAMS peptide: partially purified enzyme (purified to the DE-52 step), % of the rate of the SAMS peptide; for Km: peptide as substrate of AMPK, read-out: apparent Km as substrate for the AMPK
Excerpt: A series of synthetic peptides including analogues of proteins […] to be substrates for the AMPK were screened with partially purified enzyme (purified to the DE-52 step). These included the myosin light chains, ADR1, glycogen synthase and phospholemman. The phospholemman peptides tested were poor substrates and not investigated further. The glycogen synthase peptide, PLSRTLSVAAKK (SEQ ID NO: 46) was phosphorylated in an AMP-dependent manner at approximately 40% of the rate of the SAMS peptide, however, this peptide is an excellent substrate for a number of protein kinases, including protein kinase C and calmodulin dependent protein kinase II (Kemp, B. E. and Pearson, R. B. (1991) in Protein Phosphorylation, Hunter, T and Sefton, B. M. (eds) Methods in Enzymology, 200, 121-134). The myosin light chain peptides tested were phosphorylated with rates approximately 15% of the SAMS peptide.
The AMPK was assayed in accordance with procedures described by Davies et al. (1989) Eur. J. Biochem. 186, 123-128 using the SAMS peptide substrate, HMRSAMSGLHLVKRR-amide (SEQ ID NO: 49). The enzyme was diluted in diluting buffer (20 mM HEPES pH 7.0, 0.1% (v/v) Triton X-100) prior to assay and the reactions were initiated by adding […] diluted enzyme to the reaction mixture containing peptide substrate. The reactions were stopped by withdrawing […] aliquots and applying to P81 papers in accordance with procedures described by Pearson, R. B., Mitchelhill, K. I., and Kemp, B. E. (1993) in Protein Phosphorylation: A Practical Approach, Hardie, G. D. (ed) Oxford University Press, pp 265-291.

SAMS peptide [1] = conditions: scale: % of the SAMS peptide phosphotransferase activity of rat liver
SAMS peptide [2] = target: SAMS peptide
[3] = target: ADR1(222-234)P229 peptide
SAMS peptide [4] = target: SAMS peptide; remark: listed apart in the source
[5] = target: myosin light chain peptides
[6] = target: glycogen synthase peptide
[7] = target: ADR1(225-234) peptide (Saccharomyces cerevisiae (strain ATCC 204508 / S288c) (Baker's yeast)) (UniProt P07248)

Compound: Nc1ncnc2c1ncn2[C@@H]1O[C@H](COP(=O)(O)O)[C@@H](O)[C@H]1O [5'-AMP]
activation by 5'-AMP (AMPK α1): 2-3 fold
activation by 5'-AMP (AMPK α2): 3-4 fold

Compound: AMPK α1 isoform holoenzyme purified from liver by peptide substrate affinity chromatography (63 kDa catalytic subunit, 40 kDa and 38 kDa subunits) (from UniProt P54645)
SAMS peptide phosphotransferase activity (SAMS peptide [1]): > 94

Compound: AMPK, partially purified enzyme (purified to the DE-52 step)
apparent Km of phosphorylation [3]: 3 µM
apparent Km of phosphorylation (SAMS peptide [4]): 33 µM
rate of phosphorylation (% of the SAMS peptide) [5]: 15
rate of phosphorylation (% of the rate of the SAMS peptide) [6]: 40
rate of phosphorylation (% of the SAMS peptide) [7]: 50

Compound: HMRSAMSGLHLVKRR-amide (HMRSAMSGLHLVKRR-NH2) [SAMS peptide]
Km (AMPK): 33 µM

Now from value to compound:

rate of phosphorylation relative to the SAMS peptide (AMPK): approximately 50%
Compound: ADR1(225-234): synthetic ADR1 peptide screened as AMPK substrate (LTRRASFSAQ)

apparent specific activity (SAMS peptide [2]): > 20 fold lower
apparent specific activity (acetyl CoA carboxylase): > 20 fold lower
Compound: AMPK α2 isoenzyme of rat liver (α2 with β and γ subunits), from the unbound fraction of the peptide substrate affinity column (from UniProt Q09137)

rate of phosphorylation relative to the SAMS peptide (AMPK): approximately 50%
Km (AMPK): ~3 µM and 3 µM
Compound: LKKLTLRASFSAQ (not fully specified) [ADR1(222-234)^P229]

rate of phosphorylation relative to the SAMS peptide (AMPK): approximately 40%
Compound: PLSRTLSVAAKK [glycogen synthase peptide]
